{"source": "patent US20220041658A1", "about": "(PROTAGONIST THERAPEUTICS, published 2022)", "binders": {"B1": {"name": "Peptide of SEQ ID NO: 218 (peptide)", "peptide": "XNTXQXXXXKTX", "modifications": "Ac-[Pen]-NT-[W(7-Me)]-Q-[Pen]-Phe[4-(2-aminoethoxy)]-[2-Nal]-[a-MeLeu]-[Lys(Ac)]-[(D)Thr]-[bA]-NH2; Pen-Pen disulfide"}, "B2": {"name": "Peptide of SEQ ID NO: 207 (peptide)", "peptide": "XNTXQXXXXKAX", "modifications": "Ac-[Pen]-NT-[W(7-Me)]-Q-[Pen]-Phe[4-(2-aminoethoxy)]-[2-Nal]-[a-MeLeu]-[Lys(Ac)]-A-[bA]-NH2; Pen-Pen disulfide"}, "B3": {"name": "Peptide of SEQ ID NO: 232 (peptide)", "peptide": "XNTXQXXXXKNX", "modifications": "Ac-[Pen]-NT-[W(1-Me)]-Q-[Pen]-Phe[4-(2-aminoethoxy)]-[2-Nal]-[a-MeLys]-[Lys(Ac)]-N-[bA]-NH2; Pen-Pen disulfide"}, "B4": {"name": "Peptide of SEQ ID NO: 251 (peptide)", "peptide": "XNTXKXXXXKNV", "modifications": "Ac-[Pen]-NT-[W(7-Me)]-[Lys(Ac)]-[Pen]-Phe[4-(2-aminoethoxy)]-[2-Nal]-[a-MeLys]-[Lys(Ac)]-N-[(D)Val]-NH2; Pen-Pen disulfide"}, "B5": {"name": "Peptide of SEQ ID NO: 221 (peptide)", "peptide": "XNTXQXXXXKSX", "modifications": "Ac-[Pen]-NT-[W(7-Me)]-Q-[Pen]-Phe[4-(2-aminoethoxy)]-[2-Nal]-[a-MeLeu]-[Lys(Ac)]-S-[bA]-NH2; Pen-Pen disulfide"}, "B6": {"name": "Peptide of SEQ ID NO: 215 (peptide)", "peptide": "XNTXQXXXXKHX", "modifications": "Ac-[Pen]-NT-[W(7-Me)]-Q-[Pen]-Phe[4-(2-aminoethoxy)]-[2-Nal]-[a-MeLeu]-[Lys(Ac)]-[(D)His]-[bA]-NH2; Pen-Pen disulfide"}, "B7": {"name": "Peptide of SEQ ID NO: 245 (peptide)", "peptide": "XNTXKXXXXKNL", "modifications": "Ac-[Pen]-NT-[W(7-Me)]-[Lys(Ac)]-[Pen]-Phe[4-(2-aminoethoxy)]-[2-Nal]-[a-MeLys]-[Lys(Ac)]-N-[(D)Leu]-NH2; Pen-Pen disulfide"}, "B8": {"name": "Peptide of SEQ ID NO: 205 (peptide)", "peptide": "XNTXQXXXXKGX", "modifications": "Ac-[Pen]-NT-[W(7-Me)]-Q-[Pen]-Phe[4-(2-aminoethoxy)]-[2-Nal]-[a-MeLeu]-[Lys(Ac)]-G-[bA]-NH2; Pen-Pen disulfide"}, "B9": {"name": "Peptide of SEQ ID NO: 252 (peptide)", "peptide": "XNTXKXXXXKNK", "modifications": "Ac-[Pen]-NT-[W(7-Me)]-[Lys(Ac)]-[Pen]-Phe[4-(2-aminoethoxy)]-[2-Nal]-[a-MeLys]-[Lys(Ac)]-N-[(D)Lys]-NH2; Pen-Pen disulfide"}, "B10": {"name": "Peptide of SEQ ID NO: 238 (peptide)", "peptide": "Ac-[Pen][Cit]T[Trp(7-Me)]Q[Pen][AEF][2Nal][αMeK]K(Ac)N[βAla]-NH2", "modifications": "disulfide 1-6", "SMILES": "CC(=O)NCCCC[C@H](NC(=O)[C@](C)(CCCCN)NC(=O)[C@H](Cc1ccc2ccccc2c1)NC(=O)[C@H](Cc1ccc(OCCN)cc1)NC(=O)[C@H]1NC(=O)[C@H](CCC(N)=O)NC(=O)[C@H](Cc2c[nH]c3c(C)cccc23)NC(=O)[C@H]([C@@H](C)O)NC(=O)[C@H](CCCNC(N)=O)NC(=O)[C@@H](NC(C)=O)C(C)(C)SSC1(C)C)C(=O)N[C@@H](CC(N)=O)C(=O)NCCC(N)=O"}, "B11": {"name": "Peptide of SEQ ID NO: 202 (peptide)", "peptide": "XNTXQXXXXKNX", "modifications": "Ac-[Pen]-NT-[W(7-Me)]-Q-[Pen]-Phe[4-(2-aminoethoxy)]-[2-Nal]-[a-MeLys]-[Lys(Ac)]-N-[bA]-NH2; Pen-Pen disulfide"}, "B12": {"name": "Peptide of SEQ ID NO: 226 (peptide)", "peptide": "XNTXQXXXXKXX", "modifications": "Ac-[Pen]-NT-[W(7-Me)]-Q-[Pen]-Phe[4-(2-aminoethoxy)]-[2-Nal]-[a-MeLeu]-[Lys(Ac)]-[bA]-[bA]-NH2; Pen-Pen disulfide"}, "B13": {"name": "Peptide of SEQ ID NO: 242 (peptide)", "peptide": "XNTXKXXXXKNX", "modifications": "Ac-[Pen]-NT-[W(7-Me)]-[Lys(Ac)]-[Pen]-Phe[4-(2-aminoethoxy)]-[2-Nal]-[a-MeLys]-[Lys(Ac)]-N-[bA]-NH2; Pen-Pen disulfide"}, "B14": {"name": "Peptide of SEQ ID NO: 261 (peptide)", "peptide": "Ac-[Pen]NT[Trp(7-Me)][Cit][Pen][AEF][2Nal][αMeK]K(Ac)N[dS]-NH2", "modifications": "disulfide 1-6", "SMILES": "CC(=O)NCCCC[C@H](NC(=O)[C@](C)(CCCCN)NC(=O)[C@H](Cc1ccc2ccccc2c1)NC(=O)[C@H](Cc1ccc(OCCN)cc1)NC(=O)[C@H]1NC(=O)[C@H](CCCNC(N)=O)NC(=O)[C@H](Cc2c[nH]c3c(C)cccc23)NC(=O)[C@H]([C@@H](C)O)NC(=O)[C@H](CC(N)=O)NC(=O)[C@@H](NC(C)=O)C(C)(C)SSC1(C)C)C(=O)N[C@@H](CC(N)=O)C(=O)N[C@H](CO)C(N)=O"}, "B15": {"name": "Peptide of SEQ ID NO: 259 (peptide)", "peptide": "Ac-[Pen]NT[Trp(7-Me)][Cit][Pen][AEF][2Nal][αMeK]K(Ac)N[dY]-NH2", "modifications": "disulfide 1-6", "SMILES": "CC(=O)NCCCC[C@H](NC(=O)[C@](C)(CCCCN)NC(=O)[C@H](Cc1ccc2ccccc2c1)NC(=O)[C@H](Cc1ccc(OCCN)cc1)NC(=O)[C@H]1NC(=O)[C@H](CCCNC(N)=O)NC(=O)[C@H](Cc2c[nH]c3c(C)cccc23)NC(=O)[C@H]([C@@H](C)O)NC(=O)[C@H](CC(N)=O)NC(=O)[C@@H](NC(C)=O)C(C)(C)SSC1(C)C)C(=O)N[C@@H](CC(N)=O)C(=O)N[C@H](Cc1ccc(O)cc1)C(N)=O"}, "B16": {"name": "Peptide of SEQ ID NO: 359 (peptide)", "peptide": "XNTXKXXXXXNL", "modifications": "not fully specified; Ac-[Pen]-N-T-[W(7-Me)]-[Lys(Ac)]-[Pen]-Phe[4-(2-aminoethoxy)]-[2-Nal]-[a-MeLys]-[Lys(benzyl)]-N-[(D)Leu]-NH2; Pen-Pen disulfide"}, "B17": {"name": "Peptide of SEQ ID NO: 223 (peptide)", "peptide": "XNTXQXXXXKXX", "modifications": "Ac-[Pen]-NT-[W(7-Me)]-Q-[Pen]-Phe[4-(2-aminoethoxy)]-[2-Nal]-[a-MeLeu]-[Lys(Ac)]-[N-MeAla]-[bA]-NH2; Pen-Pen disulfide"}, "B18": {"name": "Peptide of SEQ ID NO: 234 (peptide)", "peptide": "XNTXXXXXXKNX", "modifications": "Ac-[Pen]-NT-[W(7-Me)]-[a-MeLys]-[Pen]-Phe[4-(2-aminoethoxy)]-[2-Nal]-[a-MeLeu]-[Lys(Ac)]-N-[bA]-NH2; Pen-Pen disulfide"}}, "note": "Positions of bridges follow the written chain, without caps; N, C: chain ends. Non-standard residues stand in square brackets, D forms with d. Trp(7-Me) = Cc1cccc2c(C[C@H](N)C(=O)O)c[nH]c12; 2Nal = N[C@@H](Cc1ccc2ccccc2c1)C(=O)O; AEF = NCCOc1ccc(C[C@H](N)C(=O)O)cc1; Cit = NC(=O)NCCC[C@H](N)C(=O)O; Pen = CC(C)(S)[C@H](N)C(=O)O; αMeK = C[C@](N)(CCCCN)C(=O)O; βAla = NCCC(=O)O", "data": [{"biological_target": "T1, interleukin-23 receptor (IL-23R) (human, UniProt Q5VWK5 24-629)", "T1 sequence (looked up)": "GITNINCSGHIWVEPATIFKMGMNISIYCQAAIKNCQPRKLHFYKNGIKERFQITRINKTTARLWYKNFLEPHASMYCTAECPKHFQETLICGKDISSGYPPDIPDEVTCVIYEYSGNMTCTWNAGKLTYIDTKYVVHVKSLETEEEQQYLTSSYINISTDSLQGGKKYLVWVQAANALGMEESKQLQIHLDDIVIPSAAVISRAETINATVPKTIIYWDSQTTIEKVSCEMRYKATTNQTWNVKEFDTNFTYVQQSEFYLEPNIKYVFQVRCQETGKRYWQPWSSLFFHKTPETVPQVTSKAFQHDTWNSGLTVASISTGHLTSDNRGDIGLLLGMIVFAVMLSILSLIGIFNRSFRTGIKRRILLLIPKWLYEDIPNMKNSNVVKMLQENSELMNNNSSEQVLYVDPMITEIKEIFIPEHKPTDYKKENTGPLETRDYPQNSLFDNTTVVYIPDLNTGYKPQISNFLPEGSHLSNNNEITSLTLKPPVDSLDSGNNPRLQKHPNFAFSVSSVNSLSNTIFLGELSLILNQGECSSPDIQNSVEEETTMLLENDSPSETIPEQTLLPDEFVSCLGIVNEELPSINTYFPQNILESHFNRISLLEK", "experiment": "cell-based or functional assay", "units": {"pStat3 HTRF IC50": "nM"}, "values": [{"binder": "B1", "pStat3 HTRF IC50": 11}, {"binder": "B2", "pStat3 HTRF IC50": 1.46}, {"binder": "B3", "pStat3 HTRF IC50": 4.5}, {"binder": "B4", "pStat3 HTRF IC50": 0.986}, {"binder": "B5", "pStat3 HTRF IC50": 1.27}, {"binder": "B6", "pStat3 HTRF IC50": 4.94}, {"binder": "B7", "pStat3 HTRF IC50": 0.51}, {"binder": "B8", "pStat3 HTRF IC50": 4.46}, {"binder": "B9", "pStat3 HTRF IC50": 0.338}, {"binder": "B10", "pStat3 HTRF IC50": 1.06}, {"binder": "B11", "pStat3 HTRF IC50": 1.1}, {"binder": "B12", "pStat3 HTRF IC50": 25.7}, {"binder": "B13", "pStat3 HTRF IC50": 0.641}, {"binder": "B14", "pStat3 HTRF IC50": 0.522}, {"binder": "B15", "pStat3 HTRF IC50": 0.607}, {"binder": "B16", "pStat3 HTRF IC50": 0.725}, {"binder": "B17", "pStat3 HTRF IC50": 134}, {"binder": "B18", "pStat3 HTRF IC50": 3.48}]}, {"biological_target": "T1, interleukin-23 receptor (IL-23R)", "experiment": "cell-based or functional assay", "remark": "another data set of the same source", "units": {"NK Cell Assay IC50": "nM"}, "values": [{"binder": "B1", "NK Cell Assay IC50": 50.2}, {"binder": "B2", "NK Cell Assay IC50": 8.4}, {"binder": "B3", "NK Cell Assay IC50": 9}, {"binder": "B4", "NK Cell Assay IC50": 8.19}, {"binder": "B5", "NK Cell Assay IC50": 5.5}, {"binder": "B6", "NK Cell Assay IC50": 20}, {"binder": "B7", "NK Cell Assay IC50": 2.7}, {"binder": "B8", "NK Cell Assay IC50": 16.6}, {"binder": "B9", "NK Cell Assay IC50": 3.32}, {"binder": "B10", "NK Cell Assay IC50": 2.99}, {"binder": "B11", "NK Cell Assay IC50": 3.49}, {"binder": "B12", "NK Cell Assay IC50": 9.55}, {"binder": "B13", "NK Cell Assay IC50": 2.37}, {"binder": "B14", "NK Cell Assay IC50": 4.87}, {"binder": "B15", "NK Cell Assay IC50": 7.6}, {"binder": "B16", "NK Cell Assay IC50": 4.97}, {"binder": "B17", "NK Cell Assay IC50": 8.3}, {"binder": "B18", "NK Cell Assay IC50": 7.7}]}]}
